In PMC13280853 one finds inhibition of T. molitor α-amylase activity (starch hydrolysis, DNS reagent; fraction, inhibition of human salivary α-amylase activity (starch hydrolysis, DNS reagent; fraction and inhibition of porcine pancreatic α-amylase activity (starch hydrolysis, DNS reagent; fraction data, which are given here for 4 substances.

Experiment [1] addresses Tenebrio molitor α-amylase (Tenebrio molitor) (UniProt P56634).
Experiment [2] deals with human salivary α-amylase (human) (UniProt P0DUB6).
Experiment [3] has as its target porcine pancreatic α-amylase (porcine) (UniProt P00690).
Sequence of UniProt P00690 (P00690 16-511): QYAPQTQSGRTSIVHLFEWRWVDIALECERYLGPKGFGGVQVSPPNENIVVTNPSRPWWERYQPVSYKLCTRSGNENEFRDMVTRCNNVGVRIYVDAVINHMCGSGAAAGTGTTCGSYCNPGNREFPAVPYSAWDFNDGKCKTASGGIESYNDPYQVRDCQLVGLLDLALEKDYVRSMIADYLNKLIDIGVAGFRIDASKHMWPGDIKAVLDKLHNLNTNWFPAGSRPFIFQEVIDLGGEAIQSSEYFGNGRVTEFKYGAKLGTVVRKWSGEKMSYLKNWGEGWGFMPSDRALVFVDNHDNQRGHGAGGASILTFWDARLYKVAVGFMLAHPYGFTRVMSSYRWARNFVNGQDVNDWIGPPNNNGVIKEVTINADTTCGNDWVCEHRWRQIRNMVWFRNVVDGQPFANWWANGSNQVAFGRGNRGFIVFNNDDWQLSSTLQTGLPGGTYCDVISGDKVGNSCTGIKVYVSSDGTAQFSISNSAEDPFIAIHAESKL

Sequence of UniProt P0DUB6 (P0DUB6 16-511): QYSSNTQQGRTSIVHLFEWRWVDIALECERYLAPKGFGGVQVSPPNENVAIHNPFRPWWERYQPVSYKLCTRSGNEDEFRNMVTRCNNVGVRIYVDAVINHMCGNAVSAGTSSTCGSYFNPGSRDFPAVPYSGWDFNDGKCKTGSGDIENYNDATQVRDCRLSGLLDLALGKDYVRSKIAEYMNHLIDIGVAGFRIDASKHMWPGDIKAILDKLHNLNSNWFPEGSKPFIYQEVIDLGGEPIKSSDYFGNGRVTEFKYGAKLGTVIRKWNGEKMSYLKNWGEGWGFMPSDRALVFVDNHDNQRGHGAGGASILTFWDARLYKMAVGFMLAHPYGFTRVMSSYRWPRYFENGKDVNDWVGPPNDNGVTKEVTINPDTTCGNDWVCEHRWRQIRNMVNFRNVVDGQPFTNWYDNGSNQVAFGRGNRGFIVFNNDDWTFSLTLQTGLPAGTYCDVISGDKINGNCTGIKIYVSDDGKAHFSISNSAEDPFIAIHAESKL
Sequence of UniProt P56634 (P56634 whole entry): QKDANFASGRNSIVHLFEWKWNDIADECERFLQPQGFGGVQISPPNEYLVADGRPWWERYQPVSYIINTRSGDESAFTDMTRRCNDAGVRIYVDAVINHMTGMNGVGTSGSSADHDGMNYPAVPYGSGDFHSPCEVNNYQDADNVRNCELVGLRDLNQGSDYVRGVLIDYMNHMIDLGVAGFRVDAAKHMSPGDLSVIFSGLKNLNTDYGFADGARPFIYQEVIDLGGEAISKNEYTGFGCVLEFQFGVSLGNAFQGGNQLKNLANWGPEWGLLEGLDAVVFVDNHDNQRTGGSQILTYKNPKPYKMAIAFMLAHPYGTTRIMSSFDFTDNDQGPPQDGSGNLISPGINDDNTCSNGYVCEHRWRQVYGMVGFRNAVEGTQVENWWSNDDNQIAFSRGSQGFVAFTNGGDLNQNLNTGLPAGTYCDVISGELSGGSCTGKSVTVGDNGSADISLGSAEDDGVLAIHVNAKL

With “LTP-rich fraction P10 from Capsicum chinense seeds”, the inhibition of T. molitor α-amylase activity (starch hydrolysis, DNS reagent; fraction at 50 μg/mL, 37 °C, 30 min; relative to 5 mM EDTA as 100% inhibition) in experiment [1] worked out at 98%. The inhibition of human salivary α-amylase activity (starch hydrolysis, DNS reagent; fraction at 50 μg/mL, 37 °C, 30 min; relative to 5 mM EDTA as 100% inhibition) in experiment [2] was 93%. Also, in experiment [3], the inhibition of porcine pancreatic α-amylase activity (starch hydrolysis, DNS reagent; fraction at 50 μg/mL, 37 °C, 30 min; relative to 5 mM EDTA as 100% inhibition) came out at 89%.

Take “subfraction R1 of fraction P10 (lipid transfer protein, Capsicum chinense seeds)”: the inhibition of T. molitor α-amylase activity (starch hydrolysis, DNS reagent; fraction at 50 μg/mL, 37 °C, 30 min; relative to 5 mM EDTA as 100% inhibition) in experiment [1] came out at 55%. For the same substance, the inhibition of human salivary α-amylase activity (starch hydrolysis, DNS reagent; fraction at 50 μg/mL, 37 °C, 30 min; relative to 5 mM EDTA as 100% inhibition) in experiment [2] was determined as 91%. This substance gave an inhibition of porcine pancreatic α-amylase activity (starch hydrolysis, DNS reagent; fraction at 50 μg/mL, 37 °C, 30 min; relative to 5 mM EDTA as 100% inhibition) in experiment [3] of 84%.

Regarding “subfraction R3 of fraction P10 (lipid transfer protein, Capsicum chinense seeds)”, in experiment [1], the inhibition of T. molitor α-amylase activity (starch hydrolysis, DNS reagent; fraction at 50 μg/mL, 37 °C, 30 min; relative to 5 mM EDTA as 100% inhibition) came to 93%. This substance displayed an inhibition of human salivary α-amylase activity (starch hydrolysis, DNS reagent; fraction at 50 μg/mL, 37 °C, 30 min; relative to 5 mM EDTA as 100% inhibition) in experiment [2] of 92%. Further, the inhibition of porcine pancreatic α-amylase activity (starch hydrolysis, DNS reagent; fraction at 50 μg/mL, 37 °C, 30 min; relative to 5 mM EDTA as 100% inhibition) in experiment [3] is 80%.

Turning to “subfraction R2 of fraction P10 (lipid transfer protein, Capsicum chinense seeds)”, in experiment [1], the inhibition of T. molitor α-amylase activity (starch hydrolysis, DNS reagent; fraction at 50 μg/mL, 37 °C, 30 min; relative to 5 mM EDTA as 100% inhibition) was 72%. In addition, the inhibition of human salivary α-amylase activity (starch hydrolysis, DNS reagent; fraction at 50 μg/mL, 37 °C, 30 min; relative to 5 mM EDTA as 100% inhibition) in experiment [2] came out at 85%. The substance further came in with an inhibition of porcine pancreatic α-amylase activity (starch hydrolysis, DNS reagent; fraction at 50 μg/mL, 37 °C, 30 min; relative to 5 mM EDTA as 100% inhibition) in experiment [3] of 81%.
